# From US20080293626A1, “Pigment epithelium-derived factor as a therapeutic agent for vascular leakage” (The Johns Hopkins University, priority 2003, published 2008)
# “Also recorded” adds a separate entry of the source.
# B1: PEDF: Recombinant human pigment epithelium-derived factor, 418-amino acid 50-kDa glycoprotein, produced in 293 cells (SEQ ID NO: 1) (protein, listed as Homo sapiens)
# chain: MQALVLLLCIGALLGHSSCQNPASPPEEGSPDPDSTGALVEEEDPFFKVPVNKLAAAVSNFGYDLYRVRSSMSPTTNVLLSPLSVATALSALSLGAEQRTESIIHRALYYDLISSPDIHGTYKELLDTVTAPQKNLKSASRIVFEKKLRIKSSFVAPLEKSYGTRPRVLTGNPRLDLQEINNWVQAQMKGKLARSTKEIPDELSLLLLGVAHFKGQWVTKFDSRKTSLEDFYLDEERTVRVPMMSDPKAVLRYGLDSDLSCKIAQLPLTGSMSLIFFLPLKVTQNLTLIEESLTSEFIHDIDRELKTVQAVLTVPKLKLSYEGEVTKSLQEMKLQSLFDSPDFSKITGKPIKLTQVEHRAGFEWNEDGAGTTPSPGLQPAHLTFPLDYHLNQPFIFVLRDTDTGALLFIGKILDPRGP
# modifications: glycosylated
# B2: ACT: α1-antichymotrypsin, a classical serpin used as control protein (protein, UniProt P01011 24-423, looked up)
# Alpha-1-antichymotrypsin: HPNSPLDEENLTQENQDRGTHVDLGLASANVDFAFSLYKQLVLKAPDKNVIFSPLSISTALAFLSLGAHNTTLTEILKGLKFNLTETSEAEIHQSFQHLLRTLNQSSDELQLSMGNAMFVKEQLSLLDRFTEDAKRLYGSEAFATDFQDSAAAKKLINDYVKNGTRGKITDLIKDLDSQTMMVLVNYIFFKAKWEMPFDPQDTHQSRFYLSKKKWVMVPMMSLHHLTIPYFRDEELSCTVVELKYTGNASALFILPDQDKMEEVEAMLLPETLKRWRDSLEFREIGELYLPKFSISRDYNLNDILLQLGIEEAFTSKADLSGITGARNLAVSQVVHKAVLDVFEEGTEASAATAVKITLLSALVETRTIVRFNRPFLMIIVPTDTQNIFFMSKVTNPKQA
# B3: HSP47: heat shock protein 47, collagen-specific chaperone protein from the serpin family, control protein (protein, UniProt P50454 19-418, looked up)
# Serpin H1: AEVKKPAAAAAPGTAEKLSPKAATLAERSAGLAFSLYQAMAKDQAVENILVSPVVVASSLGLVSLGGKATTASQAKAVLSAEQLRDEEVHAGLGELLRSLSNSTARNVTWKLGSRLYGPSSVSFADDFVRSSKQHYNCEHSKINFRDKRSALQSINEWAAQTTDGKLPEVTKDVERTDGALLVNAMFFKPHWDEKFHHKMVDNRGFMVTRSYTVGVMMMHRTGLYNYYDDEKEKLQIVEMPLAHKLSSLIILMPHHVEPLERLEKLLTKEQLKIWMGKMQKKAVAISLPKGVVEVTHDLQKHLAGLGLTEAIDKNKADLSRMSGKKDLYLASVFHATAFELDTDGNPFDQDIYGREELRSPKLFYADHPFIFLVRDTQSGSLLFIGRLVRPKGDKMRDEL
# Legend:
# [1] = test system: VEGF-induced retinal vascular permeability; test: Fluorescein angiography after intravitreal co-injection with VEGF164; type: in vivo, mouse (C57BL/6J); details: mouse eye, co-injected intravitreally with 12.6 ng VEGF164 at 20-fold molar excess; 20 h after injection; qualitative
# Method: (§1) Intravitreal injection to assess bioactivity on vascular permeability. C57BL/6J mice, 6-8 weeks of age, were cared for in accordance with the Association for Research in Vision and Opthalmology Statement for the Use of Animals in Ophthalmic and Vision Research. For anesthesia, each received intramuscularly 20 mg/kg ketamine, 20 mg/kg xylazine and 800 mg/kg urethane in 0.3-0.4 ml of phosphate buffered saline (PBS, 1.06 mM KH2PO4, 0.15 M NaCl and 3.00 mM Na2HPO4, pH 7.4). Under 10× magnification, 1 μl of murine VEGF164 (12.6 ng/μl in PBS; R&D Systems, Minneapolis, Minn.) was delivered through a 20° beveled glass pipette, with a tip diameter of 13-20 μm. The contralateral eye received an equal volume of PBS alone or PBS containing 12.6 ng VEGF164, and a 20-fold molar excess of PEDF (232 ng), ACT (278 ng), HSP47 (278 ng), PEDFpep (28.1 ng), ACTpep (29.7 ng), or CHIMERApep (28.2 ng).
# Fluorescein angiograghy. Twenty hours after intravitreal injections, each pupil was dilated with one drop of 1% atropine sulfate. After intraperitoneal injection of 0.1 ml of 25% fluorescein, successive retina photographs were taken with a Kowa Genesis camera. The first photograph was taken within 20 seconds of the intraperitoneal fluorescein injection. Time elapsed between the alternating right and left eye retinal photographs averages 10 seconds. Fluorescein leakage manifests as indistinct vascular borders progressing to diffusely hazy fluorescence.
# [2] = test system: VEGF-induced retinal vascular permeability; test: Evans blue assay after intravitreal co-injection with VEGF164; type: in vivo, mouse (C57BL/6J); details: mouse eye, co-injected intravitreally with VEGF164 at 20-fold molar excess; for inhibition of VEGF-induced retinal vascular permeability (Evans blue-albumin): 24 h, VEGF-induced increase = 100%, mean ±SE
# Method: as §1
# Evans Blue assay. We used a modification of the method described by Qaum et al.^44 Briefly, each mouse received intravitreal injections of proteins or peptides, and intrajugular injection of Evans blue^44. After 2 hours, 200 μl blood was taken and assayed for Evans blue. The retina was extruded and dissected free from any vitreous or adherent retinal pigment epithelium.
# To assess the Evans blue-albumin concentration, the optical density of the retinal extract and plasma samples were measured at 620 nm and 740 nm. The retinal vasopermeability was calculated as the quantity of retinal Evans blue normalized to retinal dry weight, plasma Evans blue concentration, and circulation time by using the formula as described^32,44. Since all animals in this report had 1 eye injected with VEGF alone, the retinal permeability in the VEGF injected eyes was normalized to the VEGF injected eye in the set of animals where 1 eye received PBS. The VEGF-induced increase in permeability was taken to be 100%.
# [3] = test system: VEGF164-stimulated bovine retinal capillary endothelial cell migration; details: read-out: IC50, inhibition of VEGF-stimulated endothelial cell migration; BRCEC, VEGF164-stimulated, 8 hours at 37° C.
# Method: BRCEC migration assay. Bovine retinal capillary endothelial cells (BRCEC) were isolated and cultured as described 45. […] Cells, between the fifth and ninth passage, were starved overnight in MEM with D-Val and 2% fetal bovine serum. Polycarbonate filters (10 μm pore-size, PVPF; Osmonics Inc., Minnetonka, Minn.) were coated with 100 μg/ml collagen. Quadruplicates with test samples in MEM D-Val (28 μl), and 10^4 cells in MEM D-Val (50 μl) were placed in the lower and upper wells, respectively, of the microchemotaxis chamber (NeuroProbe, Gaithersburg, Md.). After incubating 8 hours at 37° C., the non-migrated cells on the upper surface of the filter were removed, and the filters were stained with Harris' hematoxylin. For each of the test samples, one 400× field per quadrant of each of the quadruplicates was counted. From the total cell number in the 4 fields, the mean and standard error of the quadruplicate wells were calculated. Baseline migration equaled the number of migrated cells with MEM D-Val without any added proteins or peptides. The difference between baseline and the number of migrated cells with VEGF added equals maximal total migration.
Molecule,effect on VEGF-induced fluorescein leakage / vascular permeability (fluorescein angiography) [1],inhibition of VEGF-induced retinal vascular permeability (Evans blue-albumin) [2] [%],effect on VEGF-induced vascular permeability by Evans blue assay ([2]; qualitative statement),IC50 [3] [nM]
B1,not observed; also recorded: inhibits,95.6±21.2,obliterated,0.5
B2,no effect,3.4±18.2,,
B3,no effect,19.4±22.3,,
